Test results reported in patent US20240287172A1 (SCIRHOM, published 2024).

T1: hiR2-FL-L589A-T7 (human, UniProt Q6PJF5 1-856)
T1 sequence: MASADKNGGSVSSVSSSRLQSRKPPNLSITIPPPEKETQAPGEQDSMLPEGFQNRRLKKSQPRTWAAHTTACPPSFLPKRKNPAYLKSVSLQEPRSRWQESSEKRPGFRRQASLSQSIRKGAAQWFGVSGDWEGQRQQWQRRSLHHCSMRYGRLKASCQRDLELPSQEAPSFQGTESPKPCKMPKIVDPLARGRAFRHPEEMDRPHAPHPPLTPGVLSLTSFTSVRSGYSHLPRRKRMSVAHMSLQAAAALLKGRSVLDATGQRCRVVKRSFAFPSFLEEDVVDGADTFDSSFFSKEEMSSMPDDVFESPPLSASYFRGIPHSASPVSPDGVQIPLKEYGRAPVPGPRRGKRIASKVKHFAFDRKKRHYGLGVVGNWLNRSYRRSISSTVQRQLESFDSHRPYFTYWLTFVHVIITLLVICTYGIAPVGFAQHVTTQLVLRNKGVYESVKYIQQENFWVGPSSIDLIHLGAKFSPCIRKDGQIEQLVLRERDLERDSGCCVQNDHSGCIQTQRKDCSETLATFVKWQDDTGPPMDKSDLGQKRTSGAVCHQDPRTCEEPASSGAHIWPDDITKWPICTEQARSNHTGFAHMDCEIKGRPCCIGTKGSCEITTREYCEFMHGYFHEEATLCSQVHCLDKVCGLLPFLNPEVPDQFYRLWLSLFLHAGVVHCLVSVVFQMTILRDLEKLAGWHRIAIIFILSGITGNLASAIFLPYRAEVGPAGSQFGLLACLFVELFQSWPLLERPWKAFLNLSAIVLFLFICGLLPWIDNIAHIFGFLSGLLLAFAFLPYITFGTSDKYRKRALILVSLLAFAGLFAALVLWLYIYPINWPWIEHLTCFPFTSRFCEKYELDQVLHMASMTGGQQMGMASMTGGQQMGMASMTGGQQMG

T2: hiR2-FL-M591A-T7 (human, UniProt Q6PJF5 1-856)
T2 sequence: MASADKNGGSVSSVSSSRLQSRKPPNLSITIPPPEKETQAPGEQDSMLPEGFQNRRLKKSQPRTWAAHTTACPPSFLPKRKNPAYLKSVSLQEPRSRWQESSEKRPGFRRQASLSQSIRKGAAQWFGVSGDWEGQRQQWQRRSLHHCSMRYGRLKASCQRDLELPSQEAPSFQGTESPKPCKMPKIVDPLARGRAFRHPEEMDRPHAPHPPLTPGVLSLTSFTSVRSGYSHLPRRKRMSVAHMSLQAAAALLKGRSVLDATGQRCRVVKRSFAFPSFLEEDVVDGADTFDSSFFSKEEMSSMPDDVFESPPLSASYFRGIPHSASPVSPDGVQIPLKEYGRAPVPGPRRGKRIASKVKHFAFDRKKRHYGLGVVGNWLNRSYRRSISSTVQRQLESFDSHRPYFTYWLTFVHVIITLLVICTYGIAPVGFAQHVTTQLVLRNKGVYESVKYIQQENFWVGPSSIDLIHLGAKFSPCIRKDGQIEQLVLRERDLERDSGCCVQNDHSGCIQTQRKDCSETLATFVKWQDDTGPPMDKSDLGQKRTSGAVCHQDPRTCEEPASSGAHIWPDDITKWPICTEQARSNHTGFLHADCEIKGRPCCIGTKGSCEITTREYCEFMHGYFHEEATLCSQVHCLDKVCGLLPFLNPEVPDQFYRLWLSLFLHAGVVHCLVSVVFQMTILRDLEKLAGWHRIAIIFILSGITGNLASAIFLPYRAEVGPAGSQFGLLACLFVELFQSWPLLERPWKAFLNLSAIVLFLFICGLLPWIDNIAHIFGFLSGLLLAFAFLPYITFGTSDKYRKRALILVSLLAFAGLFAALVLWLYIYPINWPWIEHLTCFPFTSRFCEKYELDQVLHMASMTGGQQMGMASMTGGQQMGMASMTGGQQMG

B1: antibody 48 (antibody, V domains shown)
VH: QVQLQQSGTELVRPGTSVKVSCKASGYAFTNYLIEWVKQRPGQGLEWIGVINPGSGFTKYNEKFKGKATLTADKSSSTVYMHLSSLTSEDSAVYFCARGLYRAMDYWGQGTSVTVSS
VL: DIQMTQSPASQSASLGESVTITCLASQTIATWLAWYQQKPGKSPQLLIYGATTLADGVPSRFSGGGSGTKFSFKISSLQAEDFVSYYCQQLYSTPYTFGGGTKLEIK
notes: mouse IgG, kappa light chain; also called clone #48; purified antibody 48
B2: antibody 50 (antibody, V domains shown)
VH: QVQLQQSGAELVRPGASVKVSCKASGYAFSNYLIEWVKQRPGQGLEWIGVINPGSGFTKYNEKFKGKATLTADKSSSTAYMQLSSLTSEDSAVYFCARGLYRAMDYWGQGTSVTVSS
VL: DIQMTQSPASQSASLGESVTITCLASQTIGTWLAWYQQKPGKSPQLLIYAAASLADGVPSRFSGGGSGTKFSFKISSLQAEDFVNYYCQQIYSTPYTFGGGTKLEIK
notes: mouse IgG, kappa light chain; also called clone #50; purified antibody 50

What was measured:
hiR2-FL-L589A-T7 = target: T1, hiR2-FL-L589A-T7; assay: FACS on MEF-DKO cells expressing the variant, 3 µg/ml antibody
Procedure, shortened: (§1)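 Primary stain: antibody 3 μg/ml, 1 h on ice; controls buffer alone. Secondary: PE anti-mouse IgG F(ab′)2 1:100, 1 h on ice, light-protected. Washes at 4° C; read by flow cytometry.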

hiR2-FL-M591A-T7 = target: T2, hiR2-FL-M591A-T7; assay: as above
Procedure, shortened: as §1

Binder	loss of binding vs wild type (hiR2-FL-L589A-T7) [%]	loss of binding vs wild type (hiR2-FL-M591A-T7) [%]
B1	≥ 60	≥ 30
B2	≥ 60	≥ 30
